Reference: US20260092093A1 (TJ BIOPHARMA SHANGHAI, published 2026)
Where a chain is given by its changes, count along the chain named.

T1: recombinant hIL-18Rα extracellular domain (human, UniProt Q13478 22-329, biotin label (selection) or fluorescent probe (single-clone FACS), sites not given)
T1 construct: extracellular domain; also called hIL-18Rα ECD; hIL-18Rα-ECD
T1 sequence (looked up): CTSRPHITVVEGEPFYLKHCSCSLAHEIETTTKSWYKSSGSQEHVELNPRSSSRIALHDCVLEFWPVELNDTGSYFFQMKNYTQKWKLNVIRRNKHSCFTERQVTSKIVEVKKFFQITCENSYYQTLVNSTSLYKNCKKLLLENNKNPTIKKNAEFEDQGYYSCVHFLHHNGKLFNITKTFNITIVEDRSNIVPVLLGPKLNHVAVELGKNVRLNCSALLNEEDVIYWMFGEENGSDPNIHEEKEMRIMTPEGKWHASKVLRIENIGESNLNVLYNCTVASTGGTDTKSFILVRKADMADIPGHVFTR

T2: hIL-18Rα ECD-Fc fusion protein (human, UniProt Q13478 22-329)
T2 construct: extracellular domain; captured on Protein A sensor
T2 sequence (looked up): T1 sequence (looked up)

B1: IL-18 variant polypeptide M1 (ligand)
chain: YFPKLKSKLSVIRNLNDQVLFIDQGNRPLFEDMTDSDCRDNAPRTIFIISMYKHSDRRGMAVTISVKCEKISTLSCENKIISFKEMNPPDVIKDTKSDIIFFQVSVPGHDNKMQFESSSYEGYFLACEKERDLFKLILKKEDELGDRSIMFTVQNED
B2: SEQ ID NO 108 (ligand)
chain: B1 chain with K6G, H54Q, D56H, R57Y, V91N, V104R
B3: SEQ ID NO 115 (ligand)
chain: B1 chain with K6G, H54I, D56H, R57D, V91T, V104S
B4: SEQ ID NO 102 (ligand)
chain: B1 chain with K6R, H54F, D56N, R57F, V91A, V104S
B5: SEQ ID NO 109 (ligand)
chain: B1 chain with P3K, K6P, H54L, D56S, R57E, V91N, V104R
B6: SEQ ID NO 112 (ligand)
chain: B1 chain with K6R, D56T, R57N, V91I, V104I
B7: SEQ ID NO 92 (ligand)
chain: B1 chain with P3W, K6S, H54Q, D56L, V91R, V104A
B8: IL-18 variant polypeptide M10 (ligand)
chain: B1 chain with K6R, H54Q, D56L, R57W, V91S, V104R
B9: SEQ ID NO 103 (ligand)
chain: B1 chain with P3S, K6P, H54W, D56P, V91I, V104S
B10: SEQ ID NO 111 (ligand)
chain: B1 chain with K6E, H54Y, D56S, R57K, V91G, V104R
B11: SEQ ID NO 95 (ligand)
chain: B1 chain with P3W, K6S, H54L, D56T, R57W, V91Y, V104R
B12: SEQ ID NO 93 (ligand)
chain: B1 chain with P3G, K6P, H54L, D56N, V91G, V104R
B13: SEQ ID NO 118 (ligand)
chain: B1 chain with K6A, H54W, D56N, R57A, V91S, V104R
B14: SEQ ID NO 106 (ligand)
chain: B1 chain with K6S, H54A, D56S, R57L, V91S, V104R
B15: SEQ ID NO 98 (ligand)
chain: B1 chain with K6T, H54Y, D56T, V91N, V104R
B16: IL-18 variant polypeptide M7 (ligand)
chain: B1 chain with K6R, D56T, R57A, V91A, V104R
B17: IL-18 variant polypeptide M13 (ligand)
chain: B1 chain with H54Q, D56I, R57W, V91N, V104R
B18: SEQ ID NO 88 (ligand)
chain: B1 chain with K6S, D56S, V104A
B19: IL-18 variant polypeptide M4 (ligand)
chain: B1 chain with H54W, D56G, R57V, V104F
B20: SEQ ID NO 89 (ligand)
chain: B1 chain with K6A, D56S, R57K
B21: IL-18 variant polypeptide M9 (ligand)
chain: B1 chain with K6R, H54W, D56R, R57A, V91S, V104S
B22: IL-18 variant polypeptide M2 (ligand)
chain: B1 chain with P3S, H54W, D56P, R57D, V91G, V104T
B23: SEQ ID NO 107 (ligand)
chain: B1 chain with K6T, H54T, D56Y, R57E, V104R
B24: SEQ ID NO 100 (ligand)
chain: B1 chain with P3S, K6P, H54Y, D56T, R57W, V91F, V104S
B25: SEQ ID NO 101 (ligand)
chain: B1 chain with H54L, D56R, R57T, V91F, V104S
B26: SEQ ID NO 97 (ligand)
chain: B1 chain with H54T, D56F, R57N, V104R
B27: IL-18 variant polypeptide M14 (ligand)
chain: B1 chain with P3N, H54P, D56S, R57S, V91R, V104A
B28: SEQ ID NO 90 (ligand)
chain: B1 chain with K6R, H54S, D56L, R57K, V91T, V104S
B29: SEQ ID NO 113 (ligand)
chain: B1 chain with K6R, H54I, D56I, R57S, V91N, V104R
B30: IL-18 variant polypeptide M12 (ligand)
chain: B1 chain with H54G, D56G, R57A, V91T, V104R
B31: IL-18 variant polypeptide M3 (ligand)
chain: B1 chain with H54W, D56H, R57V, V91A, V104Y
B32: SEQ ID NO 110 (ligand)
chain: B1 chain with K6N, H54L, D56P, V91N, V104R
B33: SEQ ID NO 96 (ligand)
chain: B1 chain with K6H, H54R, D56T, R57L, V91G, V104R
B34: IL-18 variant polypeptide M5 (ligand)
chain: B1 chain with P3E, K6T, H54W, D56P, R57W, V104T, N155K
B35: IL-18 variant polypeptide M11 (ligand)
chain: B1 chain with K6R, H54S, D56R, R57N, V91G, V104T

Target: T1, recombinant hIL-18Rα extracellular …
Assay: single-clone FACS, yeast display, 10 nM labelled hIL-18Rα ECD
Method: Following the screens described in Example 2, single clone FACS analysis was performed to verify the binding of selected yeast cell surface-expressed IL-18 variant polypeptides from Round 4 and Round 5 to 10 nM hIL-18Rα-ECD. Briefly, each yeast clone at the same density was incubated with 10 nM IL-18Rα-ECD labeled by fluorescent probe, respectively, followed by washing step. Then the ratio of fluorescent positive IL-18Rα ECD binding yeasts in the population of each clone were analyzed.

Row | Binder | % of fluorescence positive cells [%]
1 | B1 | 89.8
2 | B2 | 1.08
3 | B3 | 0.35
4 | B4 | 1.64
5 | B5 | 0.98
6 | B6 | 0.69
7 | B7 | 4.48
8 | B8 | 68.1
9 | B9 | 1.44
10 | B10 | 0.69
11 | B11 | 3.45
12 | B12 | 4.48
13 | B13 | 0.15
14 | B14 | 1.34
15 | B15 | 2.36
16 | B16 | 93.8
17 | B17 | 96.4
18 | B18 | 5.45

Row | Binder | % of fluorescence positive cells [%]
19 | B19 | 44.9
20 | B20 | 5.27
21 | B21 | 36.1
22 | B22 | 91.6
23 | B23 | 1.23
24 | B24 | 2.16
25 | B25 | 1.91
26 | B26 | 2.66
27 | B27 | 88.3
28 | B28 | 5.15
29 | B29 | 0.61
30 | B30 | 88.3
31 | B31 | 93.3
32 | B32 | 0.71
33 | B33 | 2.79
34 | B34 | 96
35 | B35 | 83.6

Target: T2, hIL-18Rα ECD-Fc fusion protein
Assay: BLI (Octet RED96), hIL-18Rα ECD-Fc on Protein A sensor
Method: The affinities of IL-18 variant polypeptides for hIL-18Rα were assessed by Biolayer Interferometry (BLI) on Octet RED96 using Protein A sensor coated with hIL-18Rα ECD-Fc fusion protein, and WT hIL-18 was used as a control.

Row | Binder | Kd [nM] | Response (nm) | koff [s⁻¹] | kon [M⁻¹ s⁻¹]
36 | B1 | 2030 | 0.0186 | 0.111 | 54400
37 | B8 | 48.6 | 0.0788 | 0.0235 | 483000
38 | B16 | 11.9 | 0.0222 | 0.0271 | 2.27e+06
39 | B17 | 11.6 | 0.31 | 0.0038 | 327000
40 | B19 | 39.1 | 0.0326 | 0.017 | 436000
41 | B21 | 4.88 | < 0.02 | 0.0108 | 2.21e+06
42 | B22 | 12200 | 0.0184 | 0.0499 | 4090
43 | B27 | 23.6 | 0.218 | 0.00588 | 250000
44 | B30 | 24.9 | 0.186 | 0.0107 | 427000
45 | B31 | 2140 | 0.057 | 0.0431 | 20100
46 | B34 | 38.8 | 0.0468 | 0.0149 | 383000
47 | B35 | 68.2 | 0.08 | 0.0189 | 277000
